Experimental findings from US20240279307A1 (published 2024) are described below.

Residue numbers refer to the chain shown, from its start.

The target of test [1] is T1, HMHA1 (Rho GTPase-activating protein 45), minor histocompatibility antigen HA-1H, R139H polymorphism peptide … (human).
T1 peptide: VLHDDLLEA
In words: multimer staining.

Test [2] has as its target T2, HMHA1, wild type (HA-1R; HA-1H-negative, rs1801284 G/G) peptide on HLA-A*02:01 (human).
T2 peptide: VLRDDLLEA
The experiment in a line: killing.

B1: TCR5 (TCR, V domains shown)
Valpha: SQQGEEDPQALSIQEGENATMNCSYKTSINNLQWYRQNSGRGLVHLILIRSNEREKHSGRLRVTLDTSKKSSSLLITASRAADTASYFCATNSGNTPLVFGKGTRLSVIA
Vbeta: DTGVSQDPRHKITKRGQNVTFRCDPISEHNRLYWYRQTLGQGPEFLTYFQNEAQLEKSRLLSDRFSAERPKGSFSTLEIQRTEQGDSAMYLCASSLTTLDEQYVGPGTRLTVT
For the molecule B1, the binding result was “recognises” in test [1] and “no recognition” in test [2].

B2: TCR10 (TCR, V domains shown)
Valpha: KNQVEQSPQSLIILEGKNCTLQCNYTVSPFSNLRWYKQDTGRGPVSLTIMTFSENTKSNGRYTATLDADTKQSSLHITASQLSDSASYICVVDSGGGADGLTFGKGTHLIIQP
Vbeta: B1 Vbeta with L96M, T97L, L99N, D100Y, V104F
Take B2: the binding result in test [1] was “recognises”; in test [2], “no recognition”.

B3: TCR2 (TCR, V domains shown)
Valpha: KQEVTQIPAALSVPEGENLVLNCSFTDSAIYNLQWFRQDPGKGLTSLLLIQSSQREQTSGRLNASLDKSSGRSTLYIAASQPGDSATYLCAVIGLGGTYKYIFGTGTRLKVLA
Vbeta: DTGVSQDPRHKITKRGQNVTFRCDPISEHNRLYWYRQTLGQGPEFLTYFQNEAQLEKSRLLSDRFSAERPKGSFSTLEIQRTEQGDSAMYLCASSLVKGEKLFFGSGTQLSVL
Regarding B3, the binding result in test [1] is listed as “recognises”; in test [2] it was “no recognition”.

B4: TCR16 (TCR, V domains shown)
Valpha: KQEVTQIPAALSVPEGENLVLNCSFTDSAIYNLQWFRQDPGKGLTSLLLIQSSQREQTSGRLNASLDKSSGRSTLYIAASQPGDSATYLCAVHLLNDYKLSFGAGTTVTVRA
Vbeta: B1 Vbeta with T97V, T98V, L99G, D100N, Y103F, V104F, T113L
As to B4, the binding result in test [1] is “recognises”; in test [2], “no recognition”.

B5: TCR1 (TCR, V domains shown)
Valpha: SQQGEEDPQALSIQEGENATMNCSYKTSINNLQWYRQNSGRGLVHLILIRSNEREKHSGRLRVTLDTSKKSSSLLITASRAADTASYFCATKRDSGAGSYQLTFGKGTKLSVIP
Vbeta: DTGVSQDPRHKITKRGQNVTFRCDPISEHNRLYWYRQTLGQGPEFLTYFQNEAQLEKSRLLSDRFSAERPKGSFSTLEIQRTEQGDSAMYLCASSSTGGHNEQFFGPGTRLTVL
As for B5, the binding result in test [1] is listed as “recognises”; in test [2] it was “no recognition”.
